Substitutions are numbered along the chain they refer to. Entries after “also recorded” stand apart in the source; their conditions may differ.
B1: sDSS1-M1: sDSS1 mutant protein 1, SEQ ID NO: 15 (protein)
chain: MSEKKQPVDLGLLEEDDEFEEFPAEDWAGLDEDEDAHVWEDNWDDDNVEDDFSNQLRATVLLMILVAETPYGAYVLHQKGRMASAFLAA
B2: sDSS1-M2: sDSS1 mutant protein 2, SEQ ID NO: 16 (protein)
chain: B1 chain with A67V, A73V, A83V, A88V, A89V

What was measured:
[1] = test system: ApoE−/− mice; test: Atherosclerotic plaques of the aorta (en face oil red O staining) in high-fat diet ApoE−/− mice; format: in vivo; conditions: ATV 40 mg/kg orally once a day, 13 weeks, high-fat diet
Procedure: FIGS. 15-16. The sDSS1 protein inhibits the formation of atherosclerotic plaques in ApoE−/− mice. […] At the end of the injection, the aorta was dissected for oil red O staining, and the area of plaques was calculated.
Experimental animals: ApoE−/− mice, 8-week-old, male, were purchased from Nanjing Biomedical Research Institute of Nanjing University. The experimental animals were housed in an animal room for one week before the experiment.
Experimental method: ApoE−/− mice were fed with high-fat diet containing 0.25% cholesterol starting from the age of 9 weeks. From the 10th week of high-fat diet feeding, the mice were randomly divided into three groups according to the total cholesterol level, with 10 mice in each group. […] At the 22nd week of high-fat diet feeding, that is, the 13th week of administration, the animals were executed and dissected, and the whole aorta was separated. The separated aorta was stained with en face oil red O to evaluate the formation of atherosclerotic plaques.

[2] = biological target: T1, oxLDL (Homo sapiens, UniProt P04114); test: Co-incubation with oxLDL, SDS-PAGE separation, Coomassie brilliant blue staining; format: binding; conditions: phosphate buffer pH 7.2
T1 construct: purchased Solarbio H7980
Procedure: Experimental materials: sDSS1 protein, sDSS1 mutant protein 1 (sDSS1-M1, SEQ ID NO: 15), sDSS1 mutant protein 2 (sDSS1-M2, SEQ ID NO: 16), oxidized low density lipoprotein (oxLDL) (Solarbio, Article No.: H7980); low density lipoprotein (LDL) (Solarbio, Article No.: H7960).
Experimental method: 2 μg of oxLDL or LDL was mixed with 6 μg of sDSS1 protein or 10 μg of sDSS1 protein in a 1.5 ml EP tube in the presence of 20 mM sodium acetate/acetic acid buffer (pH 4.5) or 20 mM phosphate buffer (pH 7.2) respectively, and incubated at 37° C. for 12 h. A loading buffer was added in the incubated product and evenly mixed, and the obtained mixture was denatured at 100° C. for 10 min to prepare a loading sample. The resulting sample was subjected to electrophoretic separation via polyacrylamide gel electrophoresis (SDS-PAGE). After separation, the SDS-PAGE gel was stained with Coomassie brilliant blue to display protein strips. The sDSS1-M1 or sDSS1-M2 protein was respectively mixed and incubated with oxLDL, and treated in the same way. 15 μL of the sample was used for SDS-PAGE electrophoresis separation.

T1 sequence (P04114 28-4563): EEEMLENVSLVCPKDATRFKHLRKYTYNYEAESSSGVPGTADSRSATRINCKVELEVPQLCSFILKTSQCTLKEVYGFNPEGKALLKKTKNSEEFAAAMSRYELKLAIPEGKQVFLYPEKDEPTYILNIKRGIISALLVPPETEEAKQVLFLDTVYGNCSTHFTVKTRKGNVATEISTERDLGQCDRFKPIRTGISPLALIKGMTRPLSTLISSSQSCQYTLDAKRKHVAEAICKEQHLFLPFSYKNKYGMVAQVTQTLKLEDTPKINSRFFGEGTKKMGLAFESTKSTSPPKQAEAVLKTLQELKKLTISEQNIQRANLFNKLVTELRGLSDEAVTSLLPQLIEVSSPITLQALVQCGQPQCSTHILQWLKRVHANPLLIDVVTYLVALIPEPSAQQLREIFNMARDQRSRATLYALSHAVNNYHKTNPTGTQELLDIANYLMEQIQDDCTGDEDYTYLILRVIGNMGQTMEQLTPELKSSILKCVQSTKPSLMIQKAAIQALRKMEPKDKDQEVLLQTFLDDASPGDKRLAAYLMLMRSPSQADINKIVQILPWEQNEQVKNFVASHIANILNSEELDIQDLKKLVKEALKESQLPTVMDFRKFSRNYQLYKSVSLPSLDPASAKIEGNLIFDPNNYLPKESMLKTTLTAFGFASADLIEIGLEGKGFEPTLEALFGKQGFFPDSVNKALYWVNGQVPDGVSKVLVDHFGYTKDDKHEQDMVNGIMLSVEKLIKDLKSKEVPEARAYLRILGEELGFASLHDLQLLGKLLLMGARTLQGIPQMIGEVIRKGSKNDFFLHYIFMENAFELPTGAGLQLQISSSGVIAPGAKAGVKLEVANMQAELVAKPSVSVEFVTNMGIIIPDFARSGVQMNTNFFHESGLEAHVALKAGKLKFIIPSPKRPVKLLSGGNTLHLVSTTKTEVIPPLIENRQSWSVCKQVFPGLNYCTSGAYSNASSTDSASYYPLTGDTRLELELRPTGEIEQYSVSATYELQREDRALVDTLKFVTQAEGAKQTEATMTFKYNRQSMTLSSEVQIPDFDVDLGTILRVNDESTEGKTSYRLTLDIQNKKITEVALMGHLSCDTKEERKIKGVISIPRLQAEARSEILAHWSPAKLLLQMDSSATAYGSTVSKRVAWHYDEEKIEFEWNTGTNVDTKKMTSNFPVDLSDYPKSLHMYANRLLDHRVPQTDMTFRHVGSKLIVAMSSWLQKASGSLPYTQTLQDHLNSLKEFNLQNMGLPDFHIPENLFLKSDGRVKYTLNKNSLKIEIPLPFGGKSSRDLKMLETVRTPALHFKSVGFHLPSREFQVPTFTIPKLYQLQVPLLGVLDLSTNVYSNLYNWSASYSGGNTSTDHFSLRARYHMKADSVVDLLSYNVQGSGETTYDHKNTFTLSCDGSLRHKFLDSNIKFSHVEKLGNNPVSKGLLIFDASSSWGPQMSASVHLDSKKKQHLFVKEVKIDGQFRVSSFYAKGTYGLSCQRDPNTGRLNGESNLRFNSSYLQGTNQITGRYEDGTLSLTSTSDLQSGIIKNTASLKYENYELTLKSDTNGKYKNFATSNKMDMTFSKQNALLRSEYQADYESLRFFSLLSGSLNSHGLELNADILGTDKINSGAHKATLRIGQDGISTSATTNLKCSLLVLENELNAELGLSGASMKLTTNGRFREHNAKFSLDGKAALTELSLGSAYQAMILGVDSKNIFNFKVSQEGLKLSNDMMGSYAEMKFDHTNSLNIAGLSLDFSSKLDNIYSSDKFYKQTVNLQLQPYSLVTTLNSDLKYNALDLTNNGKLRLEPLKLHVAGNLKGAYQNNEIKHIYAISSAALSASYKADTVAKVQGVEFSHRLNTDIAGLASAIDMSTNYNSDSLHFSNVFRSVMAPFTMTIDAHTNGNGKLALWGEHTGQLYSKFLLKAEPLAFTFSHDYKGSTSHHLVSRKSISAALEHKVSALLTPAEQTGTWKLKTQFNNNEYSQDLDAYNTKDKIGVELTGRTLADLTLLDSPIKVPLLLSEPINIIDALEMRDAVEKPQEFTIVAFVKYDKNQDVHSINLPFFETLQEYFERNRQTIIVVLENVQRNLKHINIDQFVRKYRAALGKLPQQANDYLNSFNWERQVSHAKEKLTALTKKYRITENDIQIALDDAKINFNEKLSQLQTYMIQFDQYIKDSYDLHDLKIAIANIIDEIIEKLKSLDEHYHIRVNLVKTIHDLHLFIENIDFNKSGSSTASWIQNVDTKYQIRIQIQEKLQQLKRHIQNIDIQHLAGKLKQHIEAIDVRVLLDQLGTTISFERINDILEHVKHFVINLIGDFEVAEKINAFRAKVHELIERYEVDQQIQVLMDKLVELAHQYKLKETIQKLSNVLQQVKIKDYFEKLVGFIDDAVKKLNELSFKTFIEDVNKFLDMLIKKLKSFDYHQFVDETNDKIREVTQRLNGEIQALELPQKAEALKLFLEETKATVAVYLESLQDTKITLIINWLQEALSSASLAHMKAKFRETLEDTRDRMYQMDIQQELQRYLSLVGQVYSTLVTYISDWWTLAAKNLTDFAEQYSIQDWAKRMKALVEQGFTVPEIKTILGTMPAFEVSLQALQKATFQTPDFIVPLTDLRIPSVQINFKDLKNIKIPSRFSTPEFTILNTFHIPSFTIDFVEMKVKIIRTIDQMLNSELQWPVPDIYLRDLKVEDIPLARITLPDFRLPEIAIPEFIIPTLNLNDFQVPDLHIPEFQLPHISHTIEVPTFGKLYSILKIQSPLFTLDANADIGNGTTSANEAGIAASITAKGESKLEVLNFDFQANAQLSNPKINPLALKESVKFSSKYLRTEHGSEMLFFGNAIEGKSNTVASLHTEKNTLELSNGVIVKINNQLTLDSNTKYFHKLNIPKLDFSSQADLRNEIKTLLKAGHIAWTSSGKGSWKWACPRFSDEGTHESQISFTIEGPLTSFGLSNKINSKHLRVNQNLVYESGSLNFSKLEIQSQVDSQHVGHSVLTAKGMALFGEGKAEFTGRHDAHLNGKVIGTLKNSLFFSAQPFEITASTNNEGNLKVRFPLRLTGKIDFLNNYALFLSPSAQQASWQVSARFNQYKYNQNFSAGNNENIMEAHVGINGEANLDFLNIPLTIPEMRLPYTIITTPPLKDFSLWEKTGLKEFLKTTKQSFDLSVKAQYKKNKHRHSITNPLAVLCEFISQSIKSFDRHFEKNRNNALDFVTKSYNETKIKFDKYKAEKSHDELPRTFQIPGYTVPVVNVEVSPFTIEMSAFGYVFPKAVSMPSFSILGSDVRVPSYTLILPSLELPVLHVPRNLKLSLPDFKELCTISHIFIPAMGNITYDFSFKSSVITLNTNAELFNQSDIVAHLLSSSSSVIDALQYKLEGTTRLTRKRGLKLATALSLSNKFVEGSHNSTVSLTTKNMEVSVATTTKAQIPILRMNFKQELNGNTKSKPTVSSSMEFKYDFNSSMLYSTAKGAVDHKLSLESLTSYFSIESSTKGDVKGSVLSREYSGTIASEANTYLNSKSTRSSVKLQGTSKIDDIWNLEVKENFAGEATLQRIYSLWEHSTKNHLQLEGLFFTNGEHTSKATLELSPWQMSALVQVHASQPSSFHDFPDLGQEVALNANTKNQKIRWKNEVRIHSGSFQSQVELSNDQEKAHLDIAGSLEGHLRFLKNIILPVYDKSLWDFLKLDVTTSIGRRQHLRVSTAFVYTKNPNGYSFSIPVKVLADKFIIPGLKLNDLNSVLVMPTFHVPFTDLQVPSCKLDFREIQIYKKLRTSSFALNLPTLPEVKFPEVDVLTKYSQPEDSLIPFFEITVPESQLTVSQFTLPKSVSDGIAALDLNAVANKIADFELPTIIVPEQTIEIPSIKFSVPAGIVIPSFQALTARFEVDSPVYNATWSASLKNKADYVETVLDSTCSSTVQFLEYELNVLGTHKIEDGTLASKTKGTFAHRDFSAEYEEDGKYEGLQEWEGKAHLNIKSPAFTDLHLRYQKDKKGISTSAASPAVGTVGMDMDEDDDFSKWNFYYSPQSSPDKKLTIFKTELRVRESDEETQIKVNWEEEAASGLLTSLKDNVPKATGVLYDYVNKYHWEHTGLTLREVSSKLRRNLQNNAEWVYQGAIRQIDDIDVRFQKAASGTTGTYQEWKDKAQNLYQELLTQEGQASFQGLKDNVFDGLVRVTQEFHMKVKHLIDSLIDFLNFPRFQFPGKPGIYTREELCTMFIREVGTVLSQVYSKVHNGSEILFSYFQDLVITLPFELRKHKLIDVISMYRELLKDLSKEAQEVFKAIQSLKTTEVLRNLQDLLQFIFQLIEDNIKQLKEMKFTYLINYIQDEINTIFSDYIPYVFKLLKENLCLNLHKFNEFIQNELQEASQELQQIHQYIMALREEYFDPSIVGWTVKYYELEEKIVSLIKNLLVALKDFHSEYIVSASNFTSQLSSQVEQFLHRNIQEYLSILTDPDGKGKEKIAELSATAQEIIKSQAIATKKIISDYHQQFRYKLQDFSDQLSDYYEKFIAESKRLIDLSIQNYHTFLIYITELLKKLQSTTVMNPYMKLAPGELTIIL

Molecule	Area of atherosclerotic plaques (en face oil red O) vs model group [1]	Interaction with oxLDL (complex on SDS-PAGE gel) [2]
CC(C)c1c(C(=O)Nc2ccccc2)c(-c2ccccc2)c(-c2ccc(F)cc2)n1CC[C@@H](O)C[C@@H](O)CC(=O)O [ATV, Atorvastatin, reference compound]	significantly reduced	
B1		can also interact with oxLDL to form complexes; also recorded: interacted with the oxLDL protein
B2		can also interact with oxLDL to form complexes; also recorded: interacts with the oxLDL protein

Source: patent US12433934B2, “Methods and compositions for preventing and treating atherosclerosis and related diseases” (Shanghai Puyou Biomedical Co., Ltd., priority 2018, dated 2025)
